Experimental findings from patent publication US20190077860A1 (EISAI R AND D MANAGEMENT, published 2019) are described below.

In test [1] the target is T1, human EphA4 extracellular region-SEAP-His protein (human, UniProt P54764 20-547).
T1 construct: also called hEphA4-SEAP-His
Nature of the test: SPR, Ab captured. In short, it runs like this:
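Antibodies captured (~30–60 RU) on a protein A chip, or for antibody A on immobilized rat anti-mouse IgG1, in HBS-EP. Human EphA4 extracellular region-SEAP-His at 0.6–50 nM injected in ascending order without regeneration, with 120 s association and 900 s dissociation. KD=kd/ka from 1:1 binding model fits.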
In general terms: SPR reads the build-up and loss of mass on a sensor chip optically.

The target of test [2] is T1, human EphA4 extracellular …. Nature of the test: competition ELISA, competitor human Ephrin A5-Fc. In short, it runs like this: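 Anti-alkaline phosphatase-coated plates captured EphA4-SEAP-His (10 nM final), then antibody (0–3000 nM serial dilutions) and biotinylated Ephrin A5-Fc (0.7 nM final) were co-added for 1 h at room temperature. Bound ligand detected with HRP-streptavidin and TMBZ, stopped with 1N H₂SO₄, A450 read.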
(In an ELISA, binding on a coated surface is turned into a signal by an enzyme label.)

Test [3] shares this target. The experiment in a line: ELISA.
Test [4] deals with T2, human EphA8 extracellular region-SEAP-His protein (human, UniProt P29322 28-542).
T2 construct: extracellular domain; also called hEphA8-SEAP-His
T2 sequence (looked up): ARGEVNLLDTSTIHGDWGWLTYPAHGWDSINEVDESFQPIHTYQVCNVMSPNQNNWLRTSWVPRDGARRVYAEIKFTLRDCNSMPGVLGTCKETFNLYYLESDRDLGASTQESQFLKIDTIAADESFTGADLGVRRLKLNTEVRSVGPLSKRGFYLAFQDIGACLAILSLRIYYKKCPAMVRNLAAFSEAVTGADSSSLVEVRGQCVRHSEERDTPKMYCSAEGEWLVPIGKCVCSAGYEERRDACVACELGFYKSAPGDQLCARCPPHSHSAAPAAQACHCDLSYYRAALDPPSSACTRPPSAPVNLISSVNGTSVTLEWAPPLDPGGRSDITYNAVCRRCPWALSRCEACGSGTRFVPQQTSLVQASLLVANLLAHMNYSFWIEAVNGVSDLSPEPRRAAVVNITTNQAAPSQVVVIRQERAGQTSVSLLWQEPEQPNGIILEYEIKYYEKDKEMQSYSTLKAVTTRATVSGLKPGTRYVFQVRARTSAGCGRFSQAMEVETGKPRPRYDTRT
The experiment in a line: ELISA.

T1 sequence (P54764 20-547): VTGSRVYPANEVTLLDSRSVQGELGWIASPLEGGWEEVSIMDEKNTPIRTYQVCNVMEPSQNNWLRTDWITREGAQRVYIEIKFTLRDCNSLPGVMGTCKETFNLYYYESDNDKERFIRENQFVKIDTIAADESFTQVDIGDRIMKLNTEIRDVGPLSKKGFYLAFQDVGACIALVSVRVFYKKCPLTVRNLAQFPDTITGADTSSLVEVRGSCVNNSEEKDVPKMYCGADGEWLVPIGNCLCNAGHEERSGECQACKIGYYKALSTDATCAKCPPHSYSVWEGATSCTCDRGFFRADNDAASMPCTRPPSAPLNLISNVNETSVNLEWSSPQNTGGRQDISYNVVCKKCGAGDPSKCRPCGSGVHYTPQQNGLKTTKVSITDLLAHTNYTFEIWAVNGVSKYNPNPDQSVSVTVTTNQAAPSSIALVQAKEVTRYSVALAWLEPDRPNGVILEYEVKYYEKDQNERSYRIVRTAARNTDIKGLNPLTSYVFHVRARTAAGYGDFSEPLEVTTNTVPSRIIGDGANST

B1: humanized antibody No. 160 (antibody, human IgG2)
heavy: QIQLVQSGSELKKPGASVKVSCKASGYTFTDYSMHWVRQAPGQGLKWMGWINTETGEPTYADDFKGRFVFSLDTSVSTAYLQISSLKAEDTAVYYCARIPLYYYGSRYWYFDVWGQGTTVTVSSASTKGPSVFPLAPSSRSTSESTAALGCLVKDYFPEPVTVSWNSGALTSGVHTFPAVLQSSGLYSLSSVVTVPSSNFGTQTYTCNVDHKPSNTKVDKTVERKSCVECPPCPAPPAAAPSVFLFPPKPKDTLMISRTPEVTCVVVDVSHEDPEVQFNWYVDGVEVHNAKTKPREEQFNSTFRVVSVLTVVHQDWLNGKEYKCKVSNKGLPAPIEKTISKTKGQPREPQVYTLPPSREEMTKNQVSLTCLVKGFYPSDIAVEWESNGQPENNYKTTPPMLDSDGSFFLYSKLTVDKSRWQQGNVFSCSVMHEALHNHYTQKSLSLSPG
light: DIQMTQSPSSLSASVGDRVTITCRASENIYRNLAWYQQKPGKAPQLLLYAATNLADGVPSRFSGSGSGTDYTLTISSLQPEDFATYYCQHFWGTPWTFGQGTKVEIKRTVAAPSVFIFPPSDEQLKSGTASVVCLLNNFYPREAKVQWKVDNALQSGNSQESVTEQDSKDSTYSLSSTLTLSKADYEKHKVYACEVTHQGLSSPVTKSFNRGEC
notes: human Ig kappa; also called L1-6/HK4
For orientation: Kd means a measure of binding affinity in units of concentration. In general, koff refers to the first-order rate constant of dissociation. Read a low koff as slow dissociation. The term kon denotes a measure of how fast the partners come together. The term IC50 denotes the concentration that inhibits the measured activity by half. Low readings indicate greater potency, high ones weaker potency. In test [1], B1 returned a Kd of 1.9 nM, a koff of 0.00061 s⁻¹ and a kon of 320000 M⁻¹ s⁻¹. The same molecule returned an IC50 in test [2] of 2.2 nM. Further, in test [3], the “A450 as % of hEphA4-SEAP-His” value stood at 100%. Further, in test [4], the “A450 as % of hEphA4-SEAP-His” value was determined as 5.4%.

B2: humanized antibody No. 134 (antibody, human IgG2)
heavy: QVQLVQSGSELKKPGASVKVSCKASGYTFTDYSMHWVRQAPGQGLKWMGWINTETGEPTYAQGFTGRFVFSLDTSVSTAYLQISSLKAEDTAVYYCARIPLYYYGSRYWYFDVWGQGTTVTVSSASTKGPSVFPLAPSSRSTSESTAALGCLVKDYFPEPVTVSWNSGALTSGVHTFPAVLQSSGLYSLSSVVTVPSSNFGTQTYTCNVDHKPSNTKVDKTVERKSCVECPPCPAPPAAAPSVFLFPPKPKDTLMISRTPEVTCVVVDVSHEDPEVQFNWYVDGVEVHNAKTKPREEQFNSTFRVVSVLTVVHQDWLNGKEYKCKVSNKGLPAPIEKTISKTKGQPREPQVYTLPPSREEMTKNQVSLTCLVKGFYPSDIAVEWESNGQPENNYKTTPPMLDSDGSFFLYSKLTVDKSRWQQGNVFSCSVMHEALHNHYTQKSLSLSPG
light: EIVMTQSPATLSVSPGERATLSCRASENIYRNLAWYQQKPGQSPRLLIYAATNLADGIPARFSGSGSGTEYTLTISSLQSEDFAVYYCQHFWGTPWTFGQGTKVEIKRTVAAPSVFIFPPSDEQLKSGTASVVCLLNNFYPREAKVQWKVDNALQSGNSQESVTEQDSKDSTYSLSSTLTLSKADYEKHKVYACEVTHQGLSSPVTKSFNRGEC
notes: human Ig kappa; also called L2-4/HA2
For B2, in test [1], the affinity, expressed as Kd, was 1.2 nM; the koff amounted to 0.00032 s⁻¹; the kon worked out at 280000 M⁻¹ s⁻¹. In addition, the IC50 in test [2] worked out at 3 nM. Besides, the “A450 as % of hEphA4-SEAP-His” value in test [3] was determined as 100%. In addition, the “A450 as % of hEphA4-SEAP-His” value in test [4] came out at 5.7%.

B3: humanized antibody No. 132 (antibody, human IgG2)
heavy: QIQLVQSGSELKKPGASVKVSCKASGYTFTDYSMHWVRQAPGQGLKWMGWINTETGEPTYAQGFTGRFVFSLDTSVSTAYLQISSLKAEDTAVYYCARIPLYYYGSRYWYFDVWGQGTTVTVSSASTKGPSVFPLAPSSRSTSESTAALGCLVKDYFPEPVTVSWNSGALTSGVHTFPAVLQSSGLYSLSSVVTVPSSNFGTQTYTCNVDHKPSNTKVDKTVERKSCVECPPCPAPPAAAPSVFLFPPKPKDTLMISRTPEVTCVVVDVSHEDPEVQFNWYVDGVEVHNAKTKPREEQFNSTFRVVSVLTVVHQDWLNGKEYKCKVSNKGLPAPIEKTISKTKGQPREPQVYTLPPSREEMTKNQVSLTCLVKGFYPSDIAVEWESNGQPENNYKTTPPMLDSDGSFFLYSKLTVDKSRWQQGNVFSCSVMHEALHNHYTQKSLSLSPG
light: EIVMTQSPATLSVSPGERATLSCRASENIYRNLAWYQQKPGQSPRLLIYAATNLADGIPARFSGSGSGTEYTLTISSLQSEDFAVYYCQHFWGTPWTFGQGTKVEIKRTVAAPSVFIFPPSDEQLKSGTASVVCLLNNFYPREAKVQWKVDNALQSGNSQESVTEQDSKDSTYSLSSTLTLSKADYEKHKVYACEVTHQGLSSPVTKSFNRGEC
notes: human Ig kappa; also called L2-4/HA4
In test [1], B3 came in with a Kd of 1.2 nM, a koff of 0.00031 s⁻¹ and a kon of 270000 M⁻¹ s⁻¹. For the same molecule, in test [2], the IC50 is 3.1 nM. Also, in test [3], the “A450 as % of hEphA4-SEAP-His” value came to 100%. The “A450 as % of hEphA4-SEAP-His” value in test [4] stood at 4.7%.

B4: humanized antibody No. 135 (antibody, human IgG2)
heavy: QVQLVQSGSELKKPGASVKVSCKASGYTFTDYSMHWVRQAPGQGLEWMGWINTETGEPTYADDFKGRFVFSLDTSVSTAYLQISSLKAEDTAVYYCARIPLYYYGSRYWYFDVWGQGTTVTVSSASTKGPSVFPLAPSSRSTSESTAALGCLVKDYFPEPVTVSWNSGALTSGVHTFPAVLQSSGLYSLSSVVTVPSSNFGTQTYTCNVDHKPSNTKVDKTVERKSCVECPPCPAPPAAAPSVFLFPPKPKDTLMISRTPEVTCVVVDVSHEDPEVQFNWYVDGVEVHNAKTKPREEQFNSTFRVVSVLTVVHQDWLNGKEYKCKVSNKGLPAPIEKTISKTKGQPREPQVYTLPPSREEMTKNQVSLTCLVKGFYPSDIAVEWESNGQPENNYKTTPPMLDSDGSFFLYSKLTVDKSRWQQGNVFSCSVMHEALHNHYTQKSLSLSPG
light: EIVMTQSPATLSVSPGERATLSCRASENIYRNLAWYQQKPGQSPRLLIYAATNLADGIPARFSGSGSGTEYTLTISSLQSEDFAVYYCQHFWGTPWTFGQGTKVEIKRTVAAPSVFIFPPSDEQLKSGTASVVCLLNNFYPREAKVQWKVDNALQSGNSQESVTEQDSKDSTYSLSSTLTLSKADYEKHKVYACEVTHQGLSSPVTKSFNRGEC
notes: human Ig kappa; also called L2-4/HK1
On to B4, for which, in test [1], binding was put at a Kd of 1.3 nM, the koff is 0.0004 s⁻¹ and the kon stood at 320000 M⁻¹ s⁻¹. In test [2], this molecule gave an IC50 of 2.5 nM. Further, the “A450 as % of hEphA4-SEAP-His” value in test [3] was 100%. The “A450 as % of hEphA4-SEAP-His” value in test [4] turned out to be 5%.

B5: humanized antibody No. 133 (antibody, human IgG2)
heavy: QVQLVQSGSELKKPGASVKVSCKASGYTFTDYSMHWVRQAPGQGLEWMGWINTETGEPTYAQGFTGRFVFSLDTSVSTAYLQISSLKAEDTAVYYCARIPLYYYGSRYWYFDVWGQGTTVTVSSASTKGPSVFPLAPSSRSTSESTAALGCLVKDYFPEPVTVSWNSGALTSGVHTFPAVLQSSGLYSLSSVVTVPSSNFGTQTYTCNVDHKPSNTKVDKTVERKSCVECPPCPAPPAAAPSVFLFPPKPKDTLMISRTPEVTCVVVDVSHEDPEVQFNWYVDGVEVHNAKTKPREEQFNSTFRVVSVLTVVHQDWLNGKEYKCKVSNKGLPAPIEKTISKTKGQPREPQVYTLPPSREEMTKNQVSLTCLVKGFYPSDIAVEWESNGQPENNYKTTPPMLDSDGSFFLYSKLTVDKSRWQQGNVFSCSVMHEALHNHYTQKSLSLSPG
light: EIVMTQSPATLSVSPGERATLSCRASENIYRNLAWYQQKPGQSPRLLIYAATNLADGIPARFSGSGSGTEYTLTISSLQSEDFAVYYCQHFWGTPWTFGQGTKVEIKRTVAAPSVFIFPPSDEQLKSGTASVVCLLNNFYPREAKVQWKVDNALQSGNSQESVTEQDSKDSTYSLSSTLTLSKADYEKHKVYACEVTHQGLSSPVTKSFNRGEC
notes: human Ig kappa; also called L2-4/HA1
In test [1], B5 showed a Kd of 1.1 nM, a koff of 0.00032 s⁻¹ and a kon of 300000 M⁻¹ s⁻¹. The same molecule returned an IC50 in test [2] of 3 nM. In addition, in test [3], the “A450 as % of hEphA4-SEAP-His” value was determined as 100%. Moreover, in test [4], the “A450 as % of hEphA4-SEAP-His” value amounted to 4.7%.
